Article PMC8930183, “Structure of the Pf12 and Pf41 heterodimeric complex of Plasmodium falciparum 6-cysteine proteins” (FEMS Microbes, 2022)

B1: Pf41 D1D2 (residues 21-368), untagged [Plasmodium falciparum] / octa-histidine tagged Pf12 D1D2 (residues 28-304) [Plasmodium falciparum] (parent complex)
chain 1: KSHKCDFTKEKYLLSGEKEVSCEIDANPSDDITFICPNKIDSLCFHTVNISKNINQNKSTMSIQDLLYGSVVYGNTLFISPYVRTNTPFYCFCNLDTVTIQKFLKINRFLKDDDELSEADVMKHLKGGNVSEAQADEYLNKALNRFKKMKDLSKFFNDQADNTTKLNLPKSLNIPNDILNYDVYNSSNNRNDIVVKDEVTNKQIISKRGIMSVFVRSNNNVIKGCDFGNNNKNYFSHPISVAGKVNNKVCKIQGKPGELVGFKCAFEENGKVEPPNCFDQVLHKNKVTDLKTLIPGYASYTNKHSSKYPYYLKIPHFVNEQYTIQCKCKSNNSQNEYTFELDIQPGES
chain 2: NLTCDFNDVYKLEFHPNQQTSVTKLCNLTPNVLEKVTIKCGSDKLNYNLYPPTCFEEVYASRNMMHLKKIKEFVIGSSMFMRRSLTPNKINEVSFRIPPNMMPEKPIYCFCENKKTITINGSNGNPSSKKDIINRGIVEIIIPSLNEKVKGCDFTTSESTIFSKGYSINEISNKSSNNQQDIVCTVKAHANDLIGFKCPSNYSVEPHDCFVSAFNLSGKNENLENKLKLTNIIMDHYNNTFYSRLPSLISDNWKFFCVCSKDNEKKLVFTVEASISS
B2: Pf12 D1D2 (residues 28-304), untagged [Plasmodium falciparum] / octa-histidine tagged Pf41 D1D2 (residues 21-368) [Plasmodium falciparum] (parent complex)
chain 1: B1 chain 2
chain 2: B1 chain 1

Variants of: B1
Assay: BLI; mutant at 1000 nM, 500 nM, and 250 nM; binding to immobilised WT Pf12; parent: 100; read off a plot

Row | Variant | percent of parent [% WT]
1 | chain 1 KSHKCDFTKEKYLLSGEKEVSCEIDANPSDDITFICPNKIDSLCFHTVNISKNINQNKSTMSIQDLLYGSVVYGNTLFISPYVRTNTPFYCFCNLDTVTIQKFLKINRFLKDDDELSEADVMKHLKGGNVSEAQADEYLNKALNRFKKMKDLSKFFNDQADNTTKLNLPKSLNIPNDILNYDVYNSSNNRNDIVVKDEVTNKQIISKRGIMSVFVRSNNNVIKGCDFGNNNKNYFSHPISVAGKVNNKVCKIQGKPGELVGFKCAFEENGKVEPPNCFDQVLHKNKVTDLKTLIPGYASYTNKHSSKYPYYLKIPAFVNEQYTIQCKCKSNNSQNEYTFELDIQPGES [chain 1 H316A] | ~75
2 | chain 1 KSHKCDFTKEKYLLSGEKEVSCEIDANPSDDITFICPNKIDSLCFHTVNISKNINQNKSTMSIQDLLYGSVVYGNTLFISPYVRTNTPFYCFCNLDTVTIQKFLKINRFLKDDDELSEADVMKHLKGGNVSEAQADEYANKALNRFKKMKDLSKFFNDQADNTTKLNLPKSLNIPNDILNYDVYNSSNNRNDIVVKDEVTNKQIISKRGIMSVFVRSNNNVIKGCDFGNNNKNYFSHPISVAGKVNNKVCKIQGKPGELVGFKCAFEENGKVEPPNCFDQVLHKNKVTDLKTLIPGYASYTNKHSSKYPYYLKIPHFVNEQYTIQCKCKSNNSQNEYTFELDIQPGES [chain 1 L139A] | ~4
3 | chain 1 KSHKCDFTKEKYLLSGEKEVSCEIDANPSDDITFICPNKIDSLCFHTVNISKNINQNKSTMSIQDLLYGSVVYGNTLFISPYVRTNTPFYCFCNLDTVTIQKFLKINRFLKDDDELSEADVMKHLKGGNVSEAQADEYLNKAANRFKKMKDLSKFFNDQADNTTKLNLPKSLNIPNDILNYDVYNSSNNRNDIVVKDEVTNKQIISKRGIMSVFVRSNNNVIKGCDFGNNNKNYFSHPISVAGKVNNKVCKIQGKPGELVGFKCAFEENGKVEPPNCFDQVLHKNKVTDLKTLIPGYASYTNKHSSKYPYYLKIPHFVNEQYTIQCKCKSNNSQNEYTFELDIQPGES [chain 1 L143A] | ~1
4 | chain 1 KSHKCDFTKEKYLLSGEKEVSCEIDANPSDDITFICPNKIDSLCFHTVNISKNINQNKSTMSIQDLLYGSVVYGNTLFISPYVRTNTPFYCFCNLDTVTIQKFLKINRFLKDDDELSEADVMKHLKGGNVSEAQADEYLNKALNRFKKMKDLSKFFNDQADNTTKLNLPKSLNIPNDILNYDVYNSSNNRNDIVVKDEVTNKQIISKRGIMSVFVRSNNNVIKGCDFGNNNKNYFSHPISVAGKVNNKVCKIQGKPGELVGFKCAFEENGKVEPPNCFDQVLHKNKVTDLKTLIPGYASYTNKHSSKYPYYLKIPHFVNAQYTIQCKCKSNNSQNEYTFELDIQPGES [chain 1 E320A] | ~103
5 | chain 1 KSHKCDFTKEKYLLSGEKEVSCEIDANPSDDITFICPNKIDSLCFHTVNISKNINQNKSTMSIQDLLYGSVVYGNTLFISPYVRTNTPFYCFCNLDTVTIQKFLKINRFLKDDDELSEADVMKHLKGGNVSEAQADEYLNKALNRFKKMKDLSKFFNDQADNTTKLNLPKSLNIPNDILNYDVYNSSNNRNDIVVKDEVTNKQIISKRGIMSVFVRSNNNVIKGCDFGNNNKNYFSHPISVAGKVNNKVCKIQGKPGELVGFKCAFEENGKVEPPNCFDQVLHKNKVTDLKTLIPGYASYTNKHSSKYPYYLKIPHFVAEQYTIQCKCKSNNSQNEYTFELDIQPGES [chain 1 N319A] | ~36
6 | chain 1 KSHKCDFTKEKYLLSGEKEVSCEIDANPSDDITFICPNKIDSLCFHTVNISKNINQNKSTMSIQDLLYGSVVYGNTLFISPYVRTNTPFYCFCNLDTVTIQKFLKINRFLKDDDELSEADVMKHLKGGNVSEAQADEYLNKALNRAKKMKDLSKFFNDQADNTTKLNLPKSLNIPNDILNYDVYNSSNNRNDIVVKDEVTNKQIISKRGIMSVFVRSNNNVIKGCDFGNNNKNYFSHPISVAGKVNNKVCKIQGKPGELVGFKCAFEENGKVEPPNCFDQVLHKNKVTDLKTLIPGYASYTNKHSSKYPYYLKIPHFVNEQYTIQCKCKSNNSQNEYTFELDIQPGES [chain 1 F146A] | ~37
7 | chain 1 KSHKCDFTKEKYLLSGEKEVSCEIDANPSDDITFICPNKIDSLCFHTVNISKNINQNKSTMSIQDLLYGSVVYGNTLFISPYVRTNTPFYCFCNLDTVTIQKFLKINRFLKDDDELSEADVMKHLKGGNVSEAQADEYLNKALNRLKKMKDLSKFFNDQADNTTKLNLPKSLNIPNDILNYDVYNSSNNRNDIVVKDEVTNKQIISKRGIMSVFVRSNNNVIKGCDFGNNNKNYFSHPISVAGKVNNKVCKIQGKPGELVGFKCAFEENGKVEPPNCFDQVLHKNKVTDLKTLIPGYASYTNKHSSKYPYYLKIPHFVNEQYTIQCKCKSNNSQNEYTFELDIQPGES [chain 1 F146L] | ~122
8 | chain 1 KSHKCDFTKEKYLLSGEKEVSCEIDANPSDDITFICPNKIDSLCFHTVNISKNINQNKSTMSIQDLLYGSVVYGNTLFISPYVRTNTPFYCFCNLDTVTIQKFLKINRFLKDDDELSEADVMKHLKGGNVSEAQADEYLNKALNRFKKMKDLSKFFNDQADNTTKLNLPKSLNIPNDILNYDVYNSSNNRNDIVVKDEVTNKQIISKRGIMSVFVRSNNNVIKGCDFGNNNKNYFSHPISVAGKVNNKVCKIQGKPGELVGFKCAFEENGKVEPPNCFDQVLHKNKVTDLKTLIPGYASYTNKHSSKYPYYLKIPHFVNEQYTIQCKCKSNNSQNEYTFELDIQPGAS [chain 1 E347A] | ~18
9 | chain 1 KSHKCDFTKEKYLLSGEKEVSCEIDANPSDDITFICPNKIDSLCFHTVNISKNINQNKSTMSIQDLLYGSVVYGNTLFISPYVRTNTPFYCFCNLDTVTIQKFLKINRFLKDDDELSEADVMKHLKGGNVSEAQADEYLNKALNRFKKMKDLSKFFNDQADNTTKLNLPKSLNIPNDILNYDVYNSSNNRNDIVVKDEVTNKQIISKRGIMSVFVRSNNNVIKGCDFGNNNKNYFSHPISVAGKVNNKVCKIQGKPGELVGFKCAFEENGKVEPPNCFDQVLHKNKVTDLKTLIPGYASYTNKHSSKYPYYLKIPHAVNEQYTIQCKCKSNNSQNEYTFELDIQPGES [chain 1 F317A] | ~1

Variants of: B2
Assay: BLI; mutant at 1000 nM, 500 nM, and 250 nM; binding to immobilised WT Pf41; parent: 100; read off a plot

Row | Variant | percent of parent [% WT]
10 | chain 1 NLTCDFNDVYKLEFHPNQQTSVTKLCNLTPNVLEKVTIKCGSDKLNYNLYPPTCFEEVYASRNMMHLKKIKEFVIGSSMFMRRSLTPNKINEVSFEIPPNMMPEKPIYCFCENKKTITINGSNGNPSSKKDIINRGIVEIIIPSLNEKVKGCDFTTSESTIFSKGYSINEISNKSSNNQQDIVCTVKAHANDLIGFKCPSNYSVEPHDCFVSAFNLSGKNENLENKLKLTNIIMDHYNNTFYSRLPSLISDNWKFFCVCSKDNEKKLVFTVEASISS [chain 1 R96E] | ~3
11 | chain 1 NLTCDFNDVYKLEFHPNQQTSVTKLCNLTPNVLEKVTIKCGSDKLNYNLYPPTCFEEVYASRNMMHLKKIKEFVIGSSMFMRRSLTPNKINEVSFAIPPNMMPEKPIYCFCENKKTITINGSNGNPSSKKDIINRGIVEIIIPSLNEKVKGCDFTTSESTIFSKGYSINEISNKSSNNQQDIVCTVKAHANDLIGFKCPSNYSVEPHDCFVSAFNLSGKNENLENKLKLTNIIMDHYNNTFYSRLPSLISDNWKFFCVCSKDNEKKLVFTVEASISS [chain 1 R96A] | ~55
12 | chain 1 NLTCDFNDVYKLEFHPNQQTSVTKLCNLTPNVLEKVTIKCGSDKLNYNLYPPTCFEEVYASRNMMHLKKIKEFVIGSSMFMRRSLTPNKINEVSFRIPPNMMPEKPIYCFCENKKTITINGSNGNPSSKKDIINRGIVEIIIPSLNEKVKGCDFTTSESTIFSKGYSINEISNKSSNNQQDIVCTVKAHANDLIGFKCPSNYSVEPADCFVSAFNLSGKNENLENKLKLTNIIMDHYNNTFYSRLPSLISDNWKFFCVCSKDNEKKLVFTVEASISS [chain 1 H207A] | ~116
13 | chain 1 NLTCDFNDVYKLEFHPNQQTSVTKLCNLTPNVLEKVTIKCGSDKLNYNLYPPTCFEEVYASRNMMHLKKIKEFVIGSSMFMARSLTPNKINEVSFRIPPNMMPEKPIYCFCENKKTITINGSNGNPSSKKDIINRGIVEIIIPSLNEKVKGCDFTTSESTIFSKGYSINEISNKSSNNQQDIVCTVKAHANDLIGFKCPSNYSVEPHDCFVSAFNLSGKNENLENKLKLTNIIMDHYNNTFYSRLPSLISDNWKFFCVCSKDNEKKLVFTVEASISS [chain 1 R82A] | ~9
14 | chain 1 NLTCDFNDVYKLEFHPNQQTSVTKLCNLTPNVLEKVTIKCGSDKLNYNLYPPTCFEEVYASRNMMHLKKIKEFVIGSSMFMERSLTPNKINEVSFRIPPNMMPEKPIYCFCENKKTITINGSNGNPSSKKDIINRGIVEIIIPSLNEKVKGCDFTTSESTIFSKGYSINEISNKSSNNQQDIVCTVKAHANDLIGFKCPSNYSVEPHDCFVSAFNLSGKNENLENKLKLTNIIMDHYNNTFYSRLPSLISDNWKFFCVCSKDNEKKLVFTVEASISS [chain 1 R82E] | ~0
15 | chain 1 NLTCDFNDVYKLEFHPNQQTSVTKLCNLTPNVLEKVTIKCGSDKLNYNLYPPTCFEEVYASRNMMHLKKIKEFVIGSSMFMRRSLTPNKINEVSFRIPPNMMPEKPIYCFCENKKTITINGSNGNPSSKKDIINRGIVEIIIPSLNEKVKGCDFTTSESTIFSKGYSINEISNKSSNNQQDIVCTVKAHANDLIGFKCPSNYSVEPHDCFVSAFNLSGKNENLENKLKLTNIIMDHANNTFYSRLPSLISDNWKFFCVCSKDNEKKLVFTVEASISS [chain 1 Y237A] | ~2
16 | chain 1 NLTCDFNDVYKLEFHPNQQTSVTKLCNLTPNVLEKVTIKCGSDKLNYNLYPPTCFEEVYASRNMMHLKKIKEFVIGSSMFMRASLTPNKINEVSFRIPPNMMPEKPIYCFCENKKTITINGSNGNPSSKKDIINRGIVEIIIPSLNEKVKGCDFTTSESTIFSKGYSINEISNKSSNNQQDIVCTVKAHANDLIGFKCPSNYSVEPHDCFVSAFNLSGKNENLENKLKLTNIIMDHYNNTFYSRLPSLISDNWKFFCVCSKDNEKKLVFTVEASISS [chain 1 R83A] | ~38
17 | chain 1 NLTCDFNDVYKLEFHPNQQTSVTKLCNLTPNVLEKVTIKCGSDKLNYNLYPPTCFEEVYASRNMMHLKKIKEFVIGSSMFMRRSLTPNKINEVSFRIPPNMMPEKPIYCFCENKKTITINGSNGNPSSKKDIINRGIVEIIIPSLNEKVKGCDFTTSESTIFSKGYSINEISNKSSNNQQDIVCTVKAHANDLIGFKCPSNYSVEPHDCFVSAANLSGKNENLENKLKLTNIIMDHYNNTFYSRLPSLISDNWKFFCVCSKDNEKKLVFTVEASISS [chain 1 F214A] | ~12
18 | chain 1 NLTCDFNDVYKLEFHPNQQTSVTKLCNLTPNVLEKVTIKCGSDKLNYNLYPPTCFEEVYASRNMMHLKKIKEFVIGSSMFMRRSLTPNKINEVSFRIPPNMMPEKPIYCFCENKKTITINGSNGNPSSKKDIINRGIVEIIIPSLNEKVKGCDFTTSESTIFSKGYSINEISNKSSNNQQDIVCTVKAHANDLIGFKCPSNYSVEPHDCFVSAFNLSGKNENLENKLKLTNIIMDHYNNTFYSRLPSLISDNWKFACVCSKDNEKKLVFTVEASISS [chain 1 F256A] | ~4
